Experiments:
[1] = target: T1, human CD103 (integrin Alpha-E) / human integrin Beta-7 heterodimer on cells (human, UniProt P38570 19-1179; P26010 20-798); experiment: binding of 89Zr-labeled mAb to CHO.K1-hCD103/hBeta7 cells, bound activity in counts
T1 construct: The same id is used for native CD103 on human CD103+CD8+ T cells (tumor digests, TGF-beta induced T cells); the assay field tells which cells; also called hCD103/hBeta7; CHO.K1-hCD103/hBeta7

[2] = target: T2, recombinant hCD103/hBeta7 Fc-protein (Acro-Biosystems) (human, UniProt P38570 19-1124; P26010 20-723, limits assumed); experiment: ELISA on coated recombinant human CD103/beta7 Fc-protein, OD450-620, lower right panel titled rhCD103/beta7
T2 construct: Bought protein with no catalog number and no construct limits printed; also called recombinant human CD103/Beta7; recombinant hCD103/beta7; not shown: fusion part of the bought 'Fc-protein'
Experimental: Protein coated 96-well plates were blocked in protein-free blocking buffer (Pierce) for 1.5 hour at 37° C. Plates were washed and incubated for 1 hour at RT with mAb/Fab in 0.1% Tween-20 in PBS. Next, plates were washed with PBS-T and incubated for 1 hour at RT with goat-anti-mouse IgG-HRP conjugate (Southern Biotech) for mAbs, and goat-anti-human Fab-HRP conjugate (Jackson Immuno Research) for the Fab fragments in 0.1% Tween-20 in PBS. […] Reactions were stopped with 0.5 M H2SO4 and absorbances were read at 450 and 610 nm.

T2 sequence (P38570 19-1124 limits assumed, chain 1 of 2): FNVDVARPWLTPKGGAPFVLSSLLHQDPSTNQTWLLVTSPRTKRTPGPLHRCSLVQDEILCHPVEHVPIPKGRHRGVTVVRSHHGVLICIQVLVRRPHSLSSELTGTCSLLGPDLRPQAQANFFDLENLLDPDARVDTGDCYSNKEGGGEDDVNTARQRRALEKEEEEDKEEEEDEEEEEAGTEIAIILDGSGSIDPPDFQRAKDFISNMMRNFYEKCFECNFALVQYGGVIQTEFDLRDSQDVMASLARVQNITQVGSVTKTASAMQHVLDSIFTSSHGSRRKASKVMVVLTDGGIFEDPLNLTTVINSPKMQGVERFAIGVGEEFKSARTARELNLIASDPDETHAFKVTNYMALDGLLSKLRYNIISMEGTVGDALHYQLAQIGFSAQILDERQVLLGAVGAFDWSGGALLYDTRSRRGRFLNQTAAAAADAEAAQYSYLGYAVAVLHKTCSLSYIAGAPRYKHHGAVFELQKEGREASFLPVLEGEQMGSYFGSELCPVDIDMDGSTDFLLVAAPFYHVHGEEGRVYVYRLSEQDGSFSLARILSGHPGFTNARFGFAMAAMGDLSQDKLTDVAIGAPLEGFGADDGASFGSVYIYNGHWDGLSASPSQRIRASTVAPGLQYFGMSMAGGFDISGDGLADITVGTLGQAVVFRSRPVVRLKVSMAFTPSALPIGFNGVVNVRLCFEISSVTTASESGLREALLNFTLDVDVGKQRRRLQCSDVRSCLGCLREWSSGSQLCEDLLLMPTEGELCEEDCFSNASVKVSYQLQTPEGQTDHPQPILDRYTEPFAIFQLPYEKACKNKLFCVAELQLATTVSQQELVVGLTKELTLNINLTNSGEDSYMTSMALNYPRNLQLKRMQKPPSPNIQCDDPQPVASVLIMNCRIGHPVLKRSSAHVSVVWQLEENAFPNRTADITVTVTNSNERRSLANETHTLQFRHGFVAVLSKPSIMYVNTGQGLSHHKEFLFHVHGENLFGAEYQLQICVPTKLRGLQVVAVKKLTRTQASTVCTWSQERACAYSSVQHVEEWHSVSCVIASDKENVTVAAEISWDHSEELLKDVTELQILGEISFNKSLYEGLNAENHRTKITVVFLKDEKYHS
T2 sequence (P26010 20-723 limits assumed, chain 2 of 2): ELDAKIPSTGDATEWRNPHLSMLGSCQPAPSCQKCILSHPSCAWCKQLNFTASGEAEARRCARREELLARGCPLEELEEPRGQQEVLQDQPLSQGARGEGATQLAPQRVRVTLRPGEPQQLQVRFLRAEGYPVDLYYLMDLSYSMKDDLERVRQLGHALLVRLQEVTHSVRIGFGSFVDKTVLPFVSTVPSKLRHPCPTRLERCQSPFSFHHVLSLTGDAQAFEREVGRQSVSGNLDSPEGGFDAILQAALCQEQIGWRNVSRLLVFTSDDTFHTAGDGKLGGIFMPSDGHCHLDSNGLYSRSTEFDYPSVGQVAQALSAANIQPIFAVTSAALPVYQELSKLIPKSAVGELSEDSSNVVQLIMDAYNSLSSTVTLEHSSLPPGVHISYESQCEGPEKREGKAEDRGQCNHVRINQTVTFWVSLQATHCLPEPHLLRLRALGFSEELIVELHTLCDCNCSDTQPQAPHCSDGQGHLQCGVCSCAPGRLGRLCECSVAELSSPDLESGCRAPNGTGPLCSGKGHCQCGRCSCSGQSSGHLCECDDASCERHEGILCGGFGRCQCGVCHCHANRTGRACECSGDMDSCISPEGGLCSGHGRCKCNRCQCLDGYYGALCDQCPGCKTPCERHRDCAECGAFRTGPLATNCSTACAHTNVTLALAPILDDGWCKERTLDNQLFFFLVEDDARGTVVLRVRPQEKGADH
T1 sequence (P38570 19-1179 limits assumed, chain 1 of 2): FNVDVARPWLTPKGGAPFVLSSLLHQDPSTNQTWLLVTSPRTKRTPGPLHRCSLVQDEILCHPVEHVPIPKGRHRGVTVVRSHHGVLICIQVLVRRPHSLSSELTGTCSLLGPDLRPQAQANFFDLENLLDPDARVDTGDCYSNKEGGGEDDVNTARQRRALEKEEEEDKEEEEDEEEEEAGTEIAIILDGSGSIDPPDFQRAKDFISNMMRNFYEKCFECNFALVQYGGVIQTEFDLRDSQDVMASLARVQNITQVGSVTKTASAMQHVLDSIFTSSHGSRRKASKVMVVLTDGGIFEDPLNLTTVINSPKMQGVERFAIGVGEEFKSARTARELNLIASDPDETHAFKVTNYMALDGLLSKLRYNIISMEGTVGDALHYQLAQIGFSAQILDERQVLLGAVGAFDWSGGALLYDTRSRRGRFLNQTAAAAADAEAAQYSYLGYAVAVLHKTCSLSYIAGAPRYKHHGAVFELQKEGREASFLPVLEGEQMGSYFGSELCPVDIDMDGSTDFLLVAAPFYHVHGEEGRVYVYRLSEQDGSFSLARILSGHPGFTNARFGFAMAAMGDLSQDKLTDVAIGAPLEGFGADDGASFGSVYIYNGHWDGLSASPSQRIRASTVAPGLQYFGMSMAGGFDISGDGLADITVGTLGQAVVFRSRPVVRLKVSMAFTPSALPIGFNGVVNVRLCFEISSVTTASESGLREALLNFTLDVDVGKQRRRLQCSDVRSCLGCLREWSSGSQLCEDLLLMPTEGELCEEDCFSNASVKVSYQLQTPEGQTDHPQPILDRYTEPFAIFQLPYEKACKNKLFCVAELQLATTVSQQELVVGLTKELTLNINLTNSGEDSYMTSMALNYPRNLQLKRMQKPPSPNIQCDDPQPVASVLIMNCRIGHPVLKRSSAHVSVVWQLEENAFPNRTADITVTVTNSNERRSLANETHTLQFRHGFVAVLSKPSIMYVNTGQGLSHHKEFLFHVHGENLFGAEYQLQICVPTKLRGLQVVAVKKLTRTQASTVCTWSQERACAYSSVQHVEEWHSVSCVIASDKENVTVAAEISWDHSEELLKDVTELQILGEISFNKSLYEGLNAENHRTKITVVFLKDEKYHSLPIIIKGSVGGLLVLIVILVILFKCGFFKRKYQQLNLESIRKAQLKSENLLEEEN
T1 sequence (P26010 20-798 limits assumed, chain 2 of 2): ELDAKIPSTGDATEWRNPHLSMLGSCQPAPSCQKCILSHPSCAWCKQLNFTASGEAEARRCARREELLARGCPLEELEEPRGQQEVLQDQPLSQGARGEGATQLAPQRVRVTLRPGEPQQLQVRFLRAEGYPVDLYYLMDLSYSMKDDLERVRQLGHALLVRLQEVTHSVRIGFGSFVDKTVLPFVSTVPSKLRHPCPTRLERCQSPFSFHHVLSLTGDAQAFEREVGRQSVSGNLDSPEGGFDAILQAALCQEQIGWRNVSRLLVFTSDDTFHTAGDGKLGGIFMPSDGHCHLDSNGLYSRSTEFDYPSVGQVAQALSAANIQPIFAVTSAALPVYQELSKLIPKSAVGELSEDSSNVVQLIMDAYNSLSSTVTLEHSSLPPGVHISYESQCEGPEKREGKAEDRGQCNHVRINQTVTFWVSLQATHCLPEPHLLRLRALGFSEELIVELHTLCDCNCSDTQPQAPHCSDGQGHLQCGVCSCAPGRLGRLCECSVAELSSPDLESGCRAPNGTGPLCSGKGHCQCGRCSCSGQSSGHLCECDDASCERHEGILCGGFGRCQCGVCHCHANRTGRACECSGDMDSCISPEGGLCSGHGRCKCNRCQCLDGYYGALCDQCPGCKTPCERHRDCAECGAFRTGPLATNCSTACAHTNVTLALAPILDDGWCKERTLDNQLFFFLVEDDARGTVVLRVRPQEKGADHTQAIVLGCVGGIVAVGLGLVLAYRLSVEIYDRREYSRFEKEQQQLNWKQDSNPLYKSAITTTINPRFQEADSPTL

Binder | EC50 (read off the curve) [1] | EC50 (read off the curve) [2]
hCD103.05A (antibody, mouse IgG1, V domains shown, Also tested labelled with AF647, conjugated with Df and labelled with 89Zr; these are written under this molecule; also called clone 05A; hCD103.05 mAb) VH: EVQLQQSGPELEKPGASAKISCKASGYSFTGYNMNWVKQSNGKSLEWIGNIDPYYGGTSYNQKFKGKATLTVDKSSSTAYMQLKSLTSEDSAVYYCARSFYGYDAGSPYNYAMDYWGQGTPVTVSP VL: DIVMTQSHKFMSTSVGDRVSITCKASQDVGTFVAWYQQKPGQSPKLLIYWASTRHTGVPDRFTGSGSGTDFTLTISNVQSEDLADYFCHQYSSYPYTFGGGTQLEIK | ~400 ng/mL | ~3 ng/mL
hCD103.01A (antibody, V domains shown, Also tested labelled with AF647, conjugated with Df and labelled with 89Zr; these are written under this molecule; also called clone 01A; hCD103.01 mAb) VH: EVQLQESGPSLVKPSQTLSLTCSVTGDSITSGYWNWIRKFPGNKLEYMGYITYSGSTYYNPSLKSRISITRDTSKNQYYLQLNSVTTEDTATYYCTRHYYGSDAMDYWGQGTSVTVSS VL: DIVMTQSHKFMSTSVGDRVSITCKASQDVSIAVAWYQQRPGQSPKLLIYSASYRYTGVPDRFTGSGSGTDFTFTISSVQAEDLAVYYCQQHYSTPWTFGGGTKLEIK | – | ~3 ng/mL

Source: patent US20230183354A1 (IMMIOS HOLDING B V, published 2023)
